The record followed here is article PMC7096766.

This data set concerns the target human alpha-thrombin (Homo sapiens, UniProt P00734;P00734 328-363;364-622). Description: SEC mobility shift.

B1: apt29-rssp (tba29-rssp) (structured_DNA)
DNA: TTTTTTAGTCCGTGGTAGGGCAGGTTGGGGTGACT
modifications: 5'-C6-NH2, DBCO; conjugated by azide-DBCO cycloaddition to spider silk protein eADF4(C16)
Take B1: the binding result is given as “binds”.

B2: apt15-rssp (tba15-rssp) (structured_DNA)
DNA: TTTTTTGGTTGGTGTGGTTGG
modifications: 5'-C6-NH2, DBCO; conjugated by azide-DBCO cycloaddition to spider silk protein eADF4(C16)
B2: the binding result is recorded as “binds”.
